The source of these data is the FLAb antibody collection (doi:10.7554/elife.23156).

B1: scFv; the commonest letter at each place (parent)
chain 1: EVKLDETGGGLVQPGRPMKLSCVASGFTFSDYWMNWVRQSPEKGLEWVAQIRNKPYNYETYYSDSVKGRFTISRDDSKSSVYLQMNNLRVEDMGIYYCTGSYYGMDYWGQGTSVTVS
chain 2: DVVMTQTPLSLPVSLGDQASISCRSSQSLVHSNGNTYLRWYLQKPGQSPKVLIYKVSNRFSGVPDRFSGSGSGTDFTLKISRVEAEDLGVYFCSQSTHVPWTFGGGTKLEIK

The variants in data set [1] derive from B1. Nature of the data set: Kd (Tite-Seq). As to conditions: with fluorescein; format: scFv 4-4-20, heavy + light.
In data set [2] the parent is B1. Nature of the data set: yeast surface expression (ratio to wild type); higher = more expressed. As to conditions: format: scFv 4-4-20, heavy + light.

By Kd is commonly meant a measure of binding affinity in units of concentration. Take chain 1 S101F Y102A: in data set [1], the Kd is at least 10 µM. For the same variant, in data set [2], the yeast surface expression worked out at 0.623.

On to chain 1 S101E G104S, for which the Kd in data set [1] is at least 10 µM. In addition, in data set [2], the yeast surface expression was found to be 0.804.

Take chain 1 S101R Y103K: the Kd in data set [1] was at least 10 µM. Further, in data set [2], the yeast surface expression was 0.984.

In the case of chain 1 S101Q M105S, in data set [1], the Kd was at least 10 µM. In data set [2], the yeast surface expression amounted to 0.853.

On to chain 1 S101Q M105V, for which, in data set [1], the Kd is at least 10 µM. In data set [2], the yeast surface expression was found to be 0.835.

With chain 1 S101Q M105Y, the Kd in data set [1] is at least 10 µM. Further, the yeast surface expression in data set [2] is 0.795.

As to chain 1 S101L Y103S M105A, in data set [1], the Kd was at least 10 µM. In data set [2], the yeast surface expression was 0.713.

As for chain 1 S101M G104I, in data set [1], the Kd was at least 10 µM. Besides, the yeast surface expression in data set [2] came to 0.274.

As for chain 1 S101M G104W, in data set [1], the Kd was at least 10 µM. In addition, the yeast surface expression in data set [2] was 0.278.

As for chain 1 S101L, the Kd in data set [1] was at least 10 µM. Further, the yeast surface expression in data set [2] turned out to be 0.497.

As to chain 1 S101N, in data set [1], the Kd is at least 10 µM. Moreover, the yeast surface expression in data set [2] was found to be 0.886.

With chain 1 S101D, the Kd in data set [1] is at least 10 µM. Further, in data set [2], the yeast surface expression was determined as 0.888.

Regarding chain 1 S101H, the Kd in data set [1] was at least 10 µM. The yeast surface expression in data set [2] is 0.737.

For the variant chain 1 S101T, the Kd in data set [1] was at least 10 µM. In addition, the yeast surface expression in data set [2] was 0.88.

As to chain 1 S101Q, the Kd in data set [1] was at least 10 µM. Besides, the yeast surface expression in data set [2] was 0.788.

With chain 1 S101P, in data set [1], the Kd was at least 10 µM. Further, the yeast surface expression in data set [2] is 0.244.

In the case of chain 1 S101G, in data set [1], the Kd was at least 10 µM. The yeast surface expression in data set [2] is 0.901.

For chain 1 S101K, the Kd in data set [1] is at least 10 µM. Moreover, the yeast surface expression in data set [2] was found to be 0.463.

With chain 1 S101E, the Kd in data set [1] was at least 10 µM. The yeast surface expression in data set [2] is 0.838.

As for chain 1 S101M, in data set [1], the Kd was at least 10 µM. Also, in data set [2], the yeast surface expression is 0.591.

Consider chain 1 S101F, for which the Kd in data set [1] is at least 10 µM. The yeast surface expression in data set [2] amounted to 0.596.

Turning to chain 1 S101R, in data set [1], the Kd is at least 10 µM. Moreover, the yeast surface expression in data set [2] is 0.731.

chain 1 S101C: the Kd in data set [1] is at least 10 µM. In addition, the yeast surface expression in data set [2] worked out at 0.832.

As for chain 1 S101A, the Kd in data set [1] turned out to be 0.000724 µM. The yeast surface expression in data set [2] stood at 0.836.

With chain 1 S101I, the Kd in data set [1] was at least 10 µM. Also, the yeast surface expression in data set [2] was found to be 0.521.

Take chain 1 S101Q D106N: the Kd in data set [1] was at least 10 µM. In data set [2], the yeast surface expression worked out at 0.555.

On to chain 1 S101M D106G, for which, in data set [1], the Kd was at least 10 µM. Moreover, in data set [2], the yeast surface expression came to 0.323.

Regarding chain 1 S101H Y107R, the Kd in data set [1] was at least 10 µM. Moreover, in data set [2], the yeast surface expression was determined as 0.581.

chain 1 S101L G109I: the Kd in data set [1] is at least 10 µM. Moreover, the yeast surface expression in data set [2] was 0.297.

For chain 1 S101N Y102M, the Kd in data set [1] is at least 10 µM. Besides, the yeast surface expression in data set [2] is 0.944.

Regarding chain 1 S101T W108C, the Kd in data set [1] is at least 10 µM. In data set [2], the yeast surface expression worked out at 0.471.

chain 1 S101D Y103A: the Kd in data set [1] is at least 10 µM. For the same variant, the yeast surface expression in data set [2] stood at 1.07.

Consider chain 1 S101D Y103K, for which, in data set [1], the Kd was at least 10 µM. Besides, the yeast surface expression in data set [2] turned out to be 0.764.

chain 1 S101N Y103L: the Kd in data set [1] is at least 10 µM. In addition, the yeast surface expression in data set [2] amounted to 0.964.

As for chain 1 S101N Y103C, the Kd in data set [1] was at least 10 µM. Also, in data set [2], the yeast surface expression was 0.438.

As to chain 1 S101N Y103N, in data set [1], the Kd was at least 10 µM. The yeast surface expression in data set [2] is 1.21.

Turning to chain 1 S101I Y107Q, in data set [1], the Kd was at least 10 µM. The yeast surface expression in data set [2] turned out to be 0.376.

For chain 1 S101I Y107K, the Kd in data set [1] was at least 10 µM. For the same variant, in data set [2], the yeast surface expression came to 0.29.

Regarding chain 1 S101T Y102H, in data set [1], the Kd was at least 10 µM. In data set [2], the yeast surface expression was 0.748.

With chain 1 S101P G104W, the Kd in data set [1] is at least 10 µM. For the same variant, the yeast surface expression in data set [2] came to 0.299.

For chain 1 S30W N35V, the Kd in data set [1] is at least 10 µM. Further, the yeast surface expression in data set [2] was determined as 0.273.

As to chain 1 S30W N35I, in data set [1], the equilibrium dissociation constant (Kd) was at least 10 µM. In data set [2], the yeast surface expression was found to be 0.743.

Regarding chain 1 S101I Y103T W108D, the Kd in data set [1] is at least 10 µM. Moreover, the yeast surface expression in data set [2] came to 0.293.

As for chain 1 S101N G104N, in data set [1], the Kd was at least 10 µM. In addition, the yeast surface expression in data set [2] was 0.806.

Regarding chain 1 S101C D106I G109A, in data set [1], the Kd is at least 10 µM. Moreover, the yeast surface expression in data set [2] came out at 0.168.

chain 1 S101A Y102P: the Kd in data set [1] is at least 10 µM. For the same variant, the yeast surface expression in data set [2] turned out to be 0.793.

chain 1 S101P D106G W108F: the Kd in data set [1] is at least 10 µM. In addition, the yeast surface expression in data set [2] came to 0.244.

In the case of chain 1 S101K Y102I, the Kd in data set [1] is at least 10 µM. Also, the yeast surface expression in data set [2] was determined as 0.647.

On to chain 1 S30V Y32D, for which the Kd in data set [1] was at least 10 µM. Besides, the yeast surface expression in data set [2] came out at 0.745.

As for chain 1 S101G D106A, the Kd in data set [1] turned out to be 0.0457 µM. The yeast surface expression in data set [2] amounted to 0.675.

For the variant chain 1 S101G Y107K, the Kd in data set [1] is at least 10 µM. In data set [2], the yeast surface expression is 0.907.

As for chain 1 S101C Y107G, the Kd in data set [1] was at least 10 µM. In addition, the yeast surface expression in data set [2] was found to be 0.245.

For the variant chain 1 S101C Y107S, in data set [1], the Kd was at least 10 µM. The yeast surface expression in data set [2] was determined as 0.457.

On to chain 1 S101C Y107C, for which, in data set [1], the Kd was at least 10 µM. For the same variant, the yeast surface expression in data set [2] worked out at 0.493.

As to chain 1 S101C Y107T, in data set [1], the Kd was at least 10 µM. Further, the yeast surface expression in data set [2] turned out to be 0.62.

As for chain 1 S101P Y102V W108C, the Kd in data set [1] was at least 10 µM. In addition, in data set [2], the yeast surface expression is 0.1.

Regarding chain 1 S101R G109Q, the Kd in data set [1] was at least 10 µM. The yeast surface expression in data set [2] stood at 0.201.

chain 1 S101R G109M: the Kd in data set [1] was at least 10 µM. For the same variant, in data set [2], the yeast surface expression worked out at 0.251.
